Assay [1] addresses tail sheath protein gp9 of cyanophage A-1(L) (cyanophage A-1(L)). Put plainly: cryo-EM structure; intact A-1(L) particles purified from infected Anabaena sp. PCC 7120, in SM buffer (50 mM Tris-HCl pH 7.5, 10 mM MgSO4, 100 mM NaCl); local reconstructions of portal, gp5-neck fiber, gp7-terminator, sheath-tube, baseplate and tail fibers.
The target of assay [2] is neck fiber protein gp82 of cyanophage A-1(L), in the virion (cyanophage A-1(L)). The description is as above.
Assay [3] concerns the target baseplate hub gp15 of cyanophage A-1(L) (cyanophage A-1(L)). Described as above.
Assay [4] addresses tail terminator gp8 of cyanophage A-1(L) (cyanophage A-1(L)). The assay is described as above.
In assay [5] the target is neck protein gp5 of cyanophage A-1(L) (cyanophage A-1(L)). The assay is described as above.
The target of assay [6] is portal protein gp2 of cyanophage A-1(L) (cyanophage A-1(L)). The assay is described as above.
The target in assay [7] is central spike gp25 of cyanophage A-1(L) (cyanophage A-1(L)). The description is as above.
For assay [8], the target named is recombinant gp82 of the neck fiber gp82-gp81-gp80-His6 (cyanophage A-1(L)). Kind of assay: SEC-MALS; recombinant neck fiber gp82-gp81-gp80-His6, 1 mg/mL, 100 uL, Superdex 200 Increase 10/300 GL in binding buffer.
For assay [9], the target named is recombinant gp80-His6 of the neck fiber (cyanophage A-1(L)). The description is as above.
Assay [10] deals with short tail fiber gp33 of cyanophage A-1(L) (cyanophage A-1(L)). Kind of assay: cryo-EM structure; intact A-1(L) particles purified from infected Anabaena sp. PCC 7120, in SM buffer (50 mM Tris-HCl pH 7.5, 10 mM MgSO4, 100 mM NaCl); local reconstructions of portal, gp5-neck fiber, gp7-terminator, sheath-tube, baseplate and tail fibers.
For assay [11], the target named is baseplate wedge protein gp32 of cyanophage A-1(L) (cyanophage A-1(L)). The assay is described as above.
Assay [12] concerns the target tube initiator gp18 of cyanophage A-1(L) (cyanophage A-1(L)). The assay is described as above.
Assay [13] has as its target tail tube protein gp10 of cyanophage A-1(L) (cyanophage A-1(L)). The description is as above.
Assay [14] has as its target sheath initiator gp30 of cyanophage A-1(L) (cyanophage A-1(L)). Described as above.
The target of assay [15] is long tail fiber gp34 of cyanophage A-1(L) (cyanophage A-1(L)). The description is as above.
Assay [16] has as its target tape measure protein gp13 of cyanophage A-1(L) (cyanophage A-1(L)). Described as above.
In assay [17] the target is neck protein gp7 of cyanophage A-1(L) (cyanophage A-1(L)). Described as above.

For orientation: stoichiometry N means a count of units in the complex or per binding partner.

Regarding “tail sheath protein gp9 of cyanophage A-1(L) (natural protein)”, the stoichiometry N (subunits in a ring) in assay [1] stood at 6. With “neck fiber protein gp82 of cyanophage A-1(L), in the virion (natural protein)”, the stoichiometry N in [2] came out at 3 subunits. On to “baseplate hub gp15 of cyanophage A-1(L) (natural protein)”, for which the stoichiometry N in [3] is 3 subunits. Consider “tail terminator gp8 of cyanophage A-1(L) (natural protein)”, for which the stoichiometry N in assay [4] amounted to 6 subunits. Take “neck protein gp5 of cyanophage A-1(L) (natural protein)”: in assay [5], the stoichiometry N is 15 subunits.

As for “portal protein gp2 of cyanophage A-1(L) (natural protein)”, the stoichiometry N in [6] is 12 subunits. Consider “central spike gp25 of cyanophage A-1(L) (natural protein)”, for which the stoichiometry N in assay [7] was 3 subunits.

With “recombinant gp81 of the neck fiber (natural protein)”, in [8], the stoichiometry N (gp81 trimers per gp82 trimer) amounted to 14. For the same substance, the stoichiometry N (gp81 trimers per gp80 trimer) in [9] worked out at 14. The substance “short tail fiber gp33 of cyanophage A-1(L) (natural protein)” displayed a stoichiometry N in [10] of 3 subunits. The substance “baseplate wedge protein gp31 of cyanophage A-1(L) (natural protein)” registered a stoichiometry N (gp31 per gp32) in assay [11] of 2. For “tube initiator gp18 of cyanophage A-1(L) (natural protein)”, the stoichiometry N in assay [12] came to 6 subunits. Take “tail tube protein gp10 of cyanophage A-1(L) (natural protein)”: in assay [13], the stoichiometry N (subunits in a ring) is 6. “sheath initiator gp30 of cyanophage A-1(L) (natural protein)” came in with a stoichiometry N in assay [14] of 6 subunits.

“long tail fiber gp34 of cyanophage A-1(L) (natural protein)”: the stoichiometry N in assay [15] amounted to 3 subunits. “tape measure protein gp13 of cyanophage A-1(L) (natural protein)” came in with a stoichiometry N in [16] of 6. In [17], “neck protein gp7 of cyanophage A-1(L) (natural protein)” registered a stoichiometry N of 6 subunits.
